Experiment [1] has as its target VUN701. As to the kind of experiment: BRET-based β-arrestin2 recruitment competition assay (functional KB). The settings on record: 90% effective concentration of CXCL12 determined for each ACKR3 variant; parent: est. 0.0; read off a plot. On the technique in general: In BRET a luciferase serves as donor, and the signal depends on an acceptor being close.
Experiment [2] concerns the target atypical chemokine receptor 3 (ACKR3) (human).
For experiment [3] the target is unchanged. The source holds these as a separate data set.

Chain of atypical chemokine receptor 3 (ACKR3) (human) (chain, as listed by the source): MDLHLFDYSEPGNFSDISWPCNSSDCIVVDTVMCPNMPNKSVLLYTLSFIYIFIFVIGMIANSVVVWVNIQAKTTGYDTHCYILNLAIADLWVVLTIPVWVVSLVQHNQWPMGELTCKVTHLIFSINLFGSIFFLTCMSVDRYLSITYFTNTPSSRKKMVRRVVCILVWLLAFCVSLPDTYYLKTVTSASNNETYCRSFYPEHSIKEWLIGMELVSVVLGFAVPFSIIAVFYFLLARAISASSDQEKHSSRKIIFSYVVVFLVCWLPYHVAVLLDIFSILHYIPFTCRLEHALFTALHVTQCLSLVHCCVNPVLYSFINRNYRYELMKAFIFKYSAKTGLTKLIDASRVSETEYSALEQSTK

With “atypical chemokine receptor 3 (ACKR3) D275A”, in experiment [1], the log10 ratio was -1.8.
For “atypical chemokine receptor 3 (ACKR3) E290A”, in experiment [1], the log10 ratio was -1.8.
In the case of “atypical chemokine receptor 3 (ACKR3) F285A”, in experiment [1], the log10 ratio is -2.4.

B1: VUN701 (VHH)
VHH: QVQLVESGGGLVQAGGSLRLSCAASGSTFSLHLMGWYRQAPGKQREVVATSGSGGDTNYADSVKGRFTISRDNDKNTVDLQMNNLKPEDTADYYCRAQQKIGRDTFRDYWGQGTQVTVSS
With B1, the KB from Schild analysis of CXCL12-induced β-arrestin2 recruitment to ACKR3 (BRET); blocks m3 with m2 in experiment [2] was 18.2 nM. In experiment [3], this molecule had an IC50 of inhibition of CXCL11-induced β-arrestin2 recruitment to ACKR3 (BRET, HEK293T); blocks m4 with m2 of 105 nM; an IC50 of inhibition of CXCL12-induced β-arrestin2 recruitment to ACKR3 (BRET, HEK293T); blocks m3 with m2 of 157 nM; a KB (Cheng-Prusoff) from inhibition of CXCL11-induced β-arrestin2 recruitment to ACKR3 (BRET); blocks m4 with m2 of 23.3 nM; a KB (Cheng-Prusoff) from inhibition of CXCL12-induced β-arrestin2 recruitment to ACKR3 (BRET); blocks m3 with m2 of 9.8 nM. This molecule displayed a pKB (Cheng-Prusoff) from inhibition of CXCL11-induced β-arrestin2 recruitment to ACKR3 (BRET); blocks m4 with m2 in experiment [3] of 8.64.
